For series [1], the target named is T1, P. furiosus (Pf) Mre11, wild type (P. furiosus, UniProt Q8U1N9 1-426). As to the kind of experiment: SEC. On the technique in general: SEC sorts molecules by how far they enter the pores of the column.
Series [2] deals with the molecule itself. As to the kind of experiment: FRET or BRET. (In general: Bioluminescence resonance energy transfer reports proximity on the nanometre scale.)
Series [3] concerns the target T1, P. furiosus (Pf) Mre11, wild type. Put plainly: FRET or BRET.

B1: P. furiosus Rad50 nucleotide-binding domain construct (aa 1-195 - GGAGGAGG linker - aa 709-882) (domain or fragment)
chain: MKLERVTVKNFRSHSDTVVEFKEGINLIIGQNGSGKSSLLDAILVGLYWPLRIKDIKKDEFTKVGARDTYIDLIFEKDGTKYRITRRFLKGYSSGEIHAMKRLVGNEWKHVTEPSSKAISAFMEKLIPYNIFLNAIYIRQGQIDAILESDEAREKVVREVLNLDKFETAYKKLSELKKTINNRIKEYRDILARTEGGAGGAGGRERVKKEIKDLEKAKDFTEELIEKVKKYKALAREAALSKIGELASEIFAEFTEGKYSEVVVRAEENKVRLFVVWEGKERPLTFLSGGERIALGLAFRLAMSLYLAGEISLLILDEPTPYLDEERRRKLITIMERYLKKIPQVILVSHDEELKDAADHVIRISLENGSSKVEVVS
Regarding B1, in series [1], the binding result is “binds”.

B2: P. furiosus Rad50^NBD [change] [change], fluorophore-labeled (domain or fragment)
chain: MKLERVTVKNFRSHSDTVVEFKEGINLIIGQNGSGKSSLLDAILVGLYWPCRIKDIKKDEFTKVGARDTYIDLIFEKDGTKYRITRRFLKGYSSGEIHAMKRLVGNEWKHVTEPSSKAISAFMEKLIPYNIFLNAIYIRQGQIDAILESDEAREKVVREVLNLDKFETAYKELSELKKTINNRIKEYRDILARTEGGAGGAGGRERVKKEIKDLEKAKDFTEELIEKVKKYKALAREAALSKIGELASEIFAEFTEGKYSEVVVRAEENKVRLFVVWEGKERPLTFLSGGERIALGLAFRLAMSLYLAGEISLLILDEPTPYLDEERRRKLITIMERYLKKIPQVILVSHDEELKDAADHVIRISLENGSSKVEVVS
In the case of B2, the binding result in series [2] and in series [3] was “binds” throughout.

B3: P. furiosus Rad50^NBD [change] [change]/[change], fluorophore-labeled (domain or fragment)
chain: MKLERVTVKNFRSHSDTVVEFKEGINLIIGQNGSGKSSLLDAILVGLYWPCRIKDIKKDEFTKVGARDTYIDLIFEKDGTKYRITRRFLKGYSSGEIHAMKRLVGNEWKHVTEPSSKAISAFMEKLIPYNIFLNAIYIRQGQIDAILESDEAREKVVREVLNLDKFETAYKKLSELKKTINNRIKEYRDILARTEGGAGGAGGRERVKKEIKDLEKAKDFTEELIEKVKKYKALAREAALSKIGELASEIFAEFTEGKYSEVVVRAEENKVRLFVVWEGKERPLTFLSGGERIALGLAFRLAMSLYLAGEISLLILDEPTPYLDEEREEKLITIMERYLKKIPQVILVSHDEELKDAADHVIRISLENGSSKVEVVS
For B3, the binding result in series [2] and in series [3] was “binds” each time.

B4: P. furiosus Rad50^NBD [change] [change], fluorophore-labeled (domain or fragment)
chain: MKLERVTVKNFRSHSDTVVEFKEGINLIIGQNGSGKSSLLDAILVGLYWPCRIKDIKKDEFTKVGARDTYIDLIFEKDGTKYRITRRFLKGYSSGEIHAMKRLVGNEWKHVTEPSSKAISAFMEKLIPYNIFLNAIYIRQGQIDAILESDEAREKVVREVLNLDKFETAYKKLSELKKTINNRIKEYRDILARTEGGAGGAGGRERVKKEIKDLEKAKDFTEELIEKVKKYKALAREAALSKIGELASEIFAEFTEGKYSEVVVRAEENKVRLFVVWEGKERPLTFLSGGERIALGLAFRLAMSLYLAGEISLLILDEPTPYLDEERRRKLITIMERYLKKIPQVILVSHDEELKDAADHVIEISLENGSSKVEVVS
Take B4: the binding result in series [2] and in series [3] was “binds” each time.

B5: P. furiosus Rad50^NBD [change] [change]/[change], fluorophore-labeled (domain or fragment)
chain: MKLERVTVKNFRSHSDTVVEFKEGINLIIGQNGSGKSSLLDAILVGLYWPCRIKDIKKDEFTKVGARDTYIDLIFEKDGTKYRITRRFLKGYSSGEIHAMKRLVGNEWKHVTEPEEKAISAFMEKLIPYNIFLNAIYIRQGQIDAILESDEAREKVVREVLNLDKFETAYKKLSELKKTINNRIKEYRDILARTEGGAGGAGGRERVKKEIKDLEKAKDFTEELIEKVKKYKALAREAALSKIGELASEIFAEFTEGKYSEVVVRAEENKVRLFVVWEGKERPLTFLSGGERIALGLAFRLAMSLYLAGEISLLILDEPTPYLDEERRRKLITIMERYLKKIPQVILVSHDEELKDAADHVIRISLENGSSKVEVVS
As for B5, the binding result in series [2] and in series [3] was “binds” in each case.

The record behind these values is publication PMC11965522 (Communications Biology, 2025).
